The values that follow come from the RNAGym collection of RNA variant scans (doi:10.1073/pnas.2313332121).

First the molecules themselves.
B1: TPR t1 (parent)
chain: GACCAAUCUGCCCUCAGAGCUCGAGAACAUCUUCGGAUGCAGAGGAGGCAGGCUUCGGUGGCGCGAUAGCGCCAACGUCCUCAACCUCCAAUGCAUCCCACCACAUGAUGAUGCCUGAAGAGCCUUGGUUUUUUG

Variants of B1 are the subject of the data set. Briefly: polymerase ribozyme fitness, log enrichment relative to wild type (log ratio); higher = more active; in vitro selection for triplet polymerase activity. Put shortly: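 Each subunit of a heterodimeric triplet polymerase ribozyme was mutagenized into a library by PCR, transcribed, and subjected to one round of in vitro selection, run in triplicate. Libraries were annealed with a biotinylated primer, the partner subunit and triplets, incubated frozen at −7 °C, and extended constructs were gel-excised, captured on streptavidin beads and recovered by RT-PCR. Input and output libraries were sequenced on Illumina, keeping genotypes with ≥10 input reads and ≥1 read per output. Fitness is log base 2 of genotype enrichment divided by wild-type enrichment, from inverse-variance-weighted replicate averages.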
As for U32G A103G C104A C123A, the “polymerase ribozyme fitness (log ratio)” value was -6.74. Turning to C34A G42U C70G U81A C101A, the “polymerase ribozyme fitness (log ratio)” value was -8.04. To U32A A43G C88U G93A C114G belongs -5.05.

As to C31U G57C U106A, the “polymerase ribozyme fitness (log ratio)” value was -0.497. To U32C G120C belongs 1.83; to C31G A50G G60A C79A C124A, -7.23. To U32C C79G U81C G113A belongs -2.36; to A29C U106A, -1.93. As for C28U G36C C56U U81C G122U C124U U132C, the figure is -2.46; as for C31U A118U C123U, -4.23; as for A29U G63U, -2.58. For the variant C28U G127U, the “polymerase ribozyme fitness (log ratio)” value is -2.17. As for U33G C82U A83C, the figure is -6.87; as for C34A A50C C53G U106A A111C, -5.87; as for U33C G45A, -5.98. To A29C C56G C73A A119G belongs -3.16. To U32A C40G C56A A84U belongs -6.15; to A29U U96C, -1.87; to U32C G48C, -1.44. Regarding C31A G77C U112C, the “polymerase ribozyme fitness (log ratio)” value is -4.36. To C34A G60U belongs -3.73. On to C34A G60A, for which the “polymerase ribozyme fitness (log ratio)” value is -3.35.

Take C34A A105U A121U: the “polymerase ribozyme fitness (log ratio)” value is -1.99. As to C31U G48A C73U U106G, the “polymerase ribozyme fitness (log ratio)” value is -3.4. To A29G G45U C64U belongs -2.76; to A29U C98A U109G, -4.46; to U33C C49A, -5.36. On to A29G G63U G120C, for which the “polymerase ribozyme fitness (log ratio)” value was -1.96. As for U32G C53A C64U U109G, the figure is -7.34; as for A29U U30G G57U G63C C72U G120A, -7.09.

In the case of U30C C40U U55G, the “polymerase ribozyme fitness (log ratio)” value is -4.05. As to U32C C104U U112G, the “polymerase ribozyme fitness (log ratio)” value worked out at 0.174. As for C31U U54A, the figure is -5.03. As for A29G G61A G93A C102G G117C, the figure is -7.25. To U33G G65U C72G A111C A118U belongs -6.82; to U33G C104U C123G, -4.29; to U32A C73A C97U, -6.06.

As for U33G C70G G113U, the “polymerase ribozyme fitness (log ratio)” value was -6.56.

As to U32C C62A C82G G120C, the “polymerase ribozyme fitness (log ratio)” value was -2.66. As for U30G U32C, the figure is -6.32; as for C34A A46U, -3.37; as for C34A G120A, -2.29. To C34A G61U A111G belongs -2.85; to U33A C56G, -4.38. Take U30C G48U C73A C82A: the “polymerase ribozyme fitness (log ratio)” value is -3.73. For the variant U33A A46C G69U U78G, the “polymerase ribozyme fitness (log ratio)” value is -2.03. As for C34G C62U C94G A105C U130C, the “polymerase ribozyme fitness (log ratio)” value was -7.14. To A29G G42C G45C C49A U106A belongs -4.8; to C28U G110U, -1.44; to U33A C89A, -6.86. To U33A C72A C76A belongs -6.92.

Regarding U32C C56A C80U, the “polymerase ribozyme fitness (log ratio)” value is -1.66. To U32C G44U G60A belongs -0.98; to C34G C72U U109A A119U C123U, -8.4; to U32C A50G C79U C88U C114A G122A, -2.69. To A29G C115A belongs -0.195. As for C34A C123A U132C, the figure is -2.13. For the variant U32A G57U, the “polymerase ribozyme fitness (log ratio)” value is -4.02. Take C34A G44A G48A U59A G61U C72U A121C C123G: the “polymerase ribozyme fitness (log ratio)” value is -6. In the case of A29U C40A G52C G110U, the “polymerase ribozyme fitness (log ratio)” value is -3.01. Take U32C C79U U106C: the “polymerase ribozyme fitness (log ratio)” value was -0.788. As for C28U G52U, the figure is -2.88; as for U32C C40U C86G, -2.2. For A29G G61A C89A, the “polymerase ribozyme fitness (log ratio)” value was -2.41. To U33G C49G G57A C62U A84C C88G G93A G110C belongs -7.42.

As to A29U G47C C73G U109A, the “polymerase ribozyme fitness (log ratio)” value was -0.853. As for U33A A46C G69U, the “polymerase ribozyme fitness (log ratio)” value is -0.918. To C34A C72U A100U belongs -4.44. C34A G71U A75G: the “polymerase ribozyme fitness (log ratio)” value is -4.12. Consider C31A C40G A46G G63A A111U, for which the “polymerase ribozyme fitness (log ratio)” value was -6.15. To C34A C124A belongs -1.1; to A29G A46U G52U G57U U87G C115G, -4.9.

With U32G C56A C97A U109A, the “polymerase ribozyme fitness (log ratio)” value was -6.23. With A29U C72U C98U A111C, the “polymerase ribozyme fitness (log ratio)” value was -3.77. To C31G G44U G52U C62U C85U C115U G117A belongs -7.35. On to C34A U59A C114A, for which the “polymerase ribozyme fitness (log ratio)” value was -5.37. To C34A G48A C73U C101A belongs -4.83; to C34A A41G, -3.94. Take A29G G42A G63A: the “polymerase ribozyme fitness (log ratio)” value is -4.31. For the variant U30C C72A, the “polymerase ribozyme fitness (log ratio)” value was -2.24. To C31A C40U A50U G60A C101A U106A C115U A119G belongs -6.82; to A29G C123A, -0.494; to C31U C62U, -5.22. To U32C C124G belongs 1.48; to U32C A43U C123A, -1.31. As for U30G C102G U112G, the figure is -7.15; as for A29G A41G, -1.22. Turning to A29G A41U, the “polymerase ribozyme fitness (log ratio)” value was -1.6. As for U32C A90G C97A U130G, the figure is -5.05; as for U32C C49U A95C U133A, -1.67. To C28U G42U G44U G61U belongs -4.27; to C28U U129A, -3.1; to C31U A43C, -6.22. To A29C C53U C80U A90G belongs -3.07; to U33G G63C C124A, -4.77. A29C C62U C94A: the “polymerase ribozyme fitness (log ratio)” value is -3.98. To C31U C40U G45A belongs -6.8; to C34A U55C G60C U129G, -4.03. To A29U G52A G113A belongs -2.09; to U32A G120C, -3.07; to C34A G128C, -4.73. Regarding U32G C62U A105U U112G, the “polymerase ribozyme fitness (log ratio)” value is -6.91. To C34A C94U A121G U125A U129A belongs -3. As to U30C G47U C53U U54A U133A, the “polymerase ribozyme fitness (log ratio)” value is -4.89. As for A29G A83C, the figure is -1.32; as for C28U G45C, -3.26; as for C28U G45A, -2.04. For the variant U33A G61A U87A U133G, the “polymerase ribozyme fitness (log ratio)” value is -4.05. With C34A G35U G48C, the “polymerase ribozyme fitness (log ratio)” value was -3.95. As for A29U G61A, the figure is -1.45. To U33G A111U A121G U125A belongs -6.73; to A29G A37C A74G A111C, -1.06; to C34A A46U A68U G71C C124G, -7.38. As to A29G C70G G120A, the “polymerase ribozyme fitness (log ratio)” value is -2.72.

Turning to C34A A83G A100U, the “polymerase ribozyme fitness (log ratio)” value was -5.18. Consider A29U G42C A66G A119U, for which the “polymerase ribozyme fitness (log ratio)” value was -4.64. To C28U G52A C73U belongs -2.19; to C28U U125A, -2.25.

Take A29G C88U: the “polymerase ribozyme fitness (log ratio)” value was -1.2.

With C31G G51U C97A C124U, the “polymerase ribozyme fitness (log ratio)” value is -6.07. C31A C56U: the “polymerase ribozyme fitness (log ratio)” value was -4.45. To C31U C124U belongs -3.64; to C34A A50C, -3.5; to U33G U96A G110C U116G, -6.31. As for C34A G36C A46G G93U A119G, the figure is -3.14; as for C34A G113U, -5.39; as for C31G C98G G110U, -6.25.

C31U C56A C73G U106A C124A: the “polymerase ribozyme fitness (log ratio)” value was found to be 0.239. As for A29U C124U, the figure is -0.47; as for U33A C64U U87A, -4.27; as for A29C G36U A43U G44A G69U A121C, -2.34. With U32A G42A U54C U116C G128A, the “polymerase ribozyme fitness (log ratio)” value was -6.04. In the case of C34A C70U C79U, the “polymerase ribozyme fitness (log ratio)” value was -4.29. To U32G U33C A43U A91U belongs -6.04.

In the case of A29G G48U G93C G110U C123U, the “polymerase ribozyme fitness (log ratio)” value was -4.77. To A29U C62U belongs -1.3. Consider U30G A43U A91U G113U, for which the “polymerase ribozyme fitness (log ratio)” value is -6.55. As for A29G C101A, the figure is -3.99; as for C34A C101U C104U U133A, -1.95. Consider A29G C73U, for which the “polymerase ribozyme fitness (log ratio)” value was -1.55. As for A29G U55G G63A U131C U133G, the figure is -2.37; as for U32C C73A C85G, -3.02. On to A29G A46U G52U G57U C80U U87G C115G, for which the “polymerase ribozyme fitness (log ratio)” value is -5.18.

On to C28U U38A C79U C104A C124A U133G, for which the “polymerase ribozyme fitness (log ratio)” value is -4.38. To A29G C34A C40A U106G G113U U126C belongs -7.15. As for C34G A111G G127A, the figure is -5.87; as for U33A C82A, -5.5; as for A29U G35A C56U C72U U96A C98G C115G, -7.16. To A29U C72U belongs -2.19; to A29G U32C A50U, -1.45; to A29U A50C C98U, -3.99. U32C G48U G69A: the “polymerase ribozyme fitness (log ratio)” value was -3.8. In the case of U30C C101U A111C, the “polymerase ribozyme fitness (log ratio)” value was -3.68. To C31U G69U U78C A118G belongs -3.16. As for A29U A37U C40U G71C, the figure is -2.78. To U32C C64U belongs 0.123. For the variant C31U G36C G61A, the “polymerase ribozyme fitness (log ratio)” value is -4.05.

For A29U C123A, the “polymerase ribozyme fitness (log ratio)” value is -1.43.

For A29U C62G U106A, the “polymerase ribozyme fitness (log ratio)” value was -2.35. For C34G C72U, the “polymerase ribozyme fitness (log ratio)” value was -5.89. In the case of A29U G71U, the “polymerase ribozyme fitness (log ratio)” value was -1.99. For the variant C28U U112C U131A, the “polymerase ribozyme fitness (log ratio)” value was -0.425. Regarding U32A G39U G45C C64G C114A, the “polymerase ribozyme fitness (log ratio)” value was -6.51. To U33A U59A U112C G122C belongs -4.47; to C34A C53U C114A U129C, -5.56; to U32C G71C C79G U81C G113A, -3.36.

Turning to A29G A43G G107U C124U, the “polymerase ribozyme fitness (log ratio)” value was -6.92.
